# Literature values in patent US20190345209.
# System: BCR-ABL1 zinc finger protein (three-finger ZFP) (synthetic construct)
# Conditions: CITED (ref 50); p122 prints 78 uM, evidently a typo
sequence,measurement,value
"GCAGAAGCC (double strand) [BCR-ABL1 9 bp binding site (in Go92, Go66, Go85 promoters)]",Kd,78 pM
